Values of other authors as cited in publication PMC8369179.

Biological target: RAGE 23-121 (Homo sapiens) (UniProt Q15109)
UniProt Q15109, sequence (Q15109 23-121): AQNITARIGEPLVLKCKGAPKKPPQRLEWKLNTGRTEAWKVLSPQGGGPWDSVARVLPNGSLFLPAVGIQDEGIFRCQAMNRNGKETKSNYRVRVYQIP

Kd: 48.3 nM
Substance: HMGB1 1-215 (from UniProt P09429)
